We go through 6 molecules from patent publication US6451982 (SCHERING, dated 2002).

Test [1] deals with T1, recombinant human interleukin-5 (human, UniProt P05113 20-134).
T1 sequence (looked up): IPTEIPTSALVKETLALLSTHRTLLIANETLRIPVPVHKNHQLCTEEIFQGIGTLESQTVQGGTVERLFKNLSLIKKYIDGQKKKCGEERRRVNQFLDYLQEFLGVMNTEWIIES
Briefly: competition ELISA on plates coated with human IL-5; competitor biotinylated JES1-39D10. The method, then:
Competition assays were carried out in which binding of the biotinylated antibody to plates coated with human IL-5 was measured in the presence of unlabelled antibody JES1-39D10 or antibody CMx5-1, CMX5-2 or CMX5-5, each of which had been purified by protein A/G affinity chromatography.
EIA plates were treated with 0.1 M NaHCO_3, pH 9.2, for 1 hour at room temperature. Human IL-5 in TBS was then added at […]. The plates were incubated overnight at 4° C. and then blocked with 3% BSA-TBS ml for 1 hour at room temperature. Fifty microliters of 2-fold serially diluted competing antibodies plus the appropriate amount of biotinylated antibody JES1-39D10 (also in a 50 μl volume) were added to each well, and the plates were incubated for 1 hour at room temperature.
The plates were then washed 5 times with TBS-Tween-20, incubated with 1 μg/ml horseradish peroxidase (HRP)-streptavidin conjugate for 1 hour at room temperature, washed 5 times with TBS-Tween-20, and developed with HRP substrate TMB. Absorbance of the samples was then measured spectrophotometrically at 450 nm.
(In general: In an ELISA, binding on a coated surface is turned into a signal by an enzyme label.)

In test [2] the target is T1, recombinant human interleukin-5. In words: cell-based or functional assay.
Test [3] shares this target. Briefly: inhibition of binding of 0.5 nM radiolabeled human IL-5 to IL-5 receptor alpha chains on transfected COS cells.
For test [4] the target is unchanged. Briefly: captured antibody on plate, 125I-IL-5 binding, Scatchard analysis. The method, then:
To determine whether the humanized antibodies retained the ability to specifically bind to human IL-5, apparent dissociation constants of antibody/antigen complexes were measured. This was done by coating enzyme immunoassay plates with mouse anti-human IgG_4-Fc (5 µg per ml, 100 ill per well) in 50 mM bicarbonate buffer, pH 9.5. The plates were then blocked at room temperature for 90 minutes with BLOTTO, washed 3 times, and incubated at 37° C. for 2 hours with one of the humanized antibodies, either purified (100 µl per well with a final concentration of 0.05 µg per ml) or in the form of conditioned medium (100 µl per well).
After the plates were washed 3 times, a dilution series of ^125I-labeled human IL-5 at concentrations between 4,000 pM and 2 pM was applied to the wells in each plate in final volumes of 100 µl. All test wells were run in triplicate. Background binding was determined by using a 1000-fold molar excess of unlablled human IL-5 in control wells. The reactions were allowed to equilibrate at room temperature for 2 hours, at which time the wells were aspirated and washed 5 times with TBST. The wells were then separated and counted in a Pharmacia LKB γ-counter. All nonspecific binding controls were run in duplicate. The values obtained for bound human IL-5 were subjected to Scatchard analysis (using RADLIG software) to obtain dissociation constant (kd) values.

Changes are numbered by the printed parent chain.

What is called IC50 is the point on the concentration scale where inhibition reaches its midpoint. In the case of monoclonal antibody JES1-39D10, in test [1], the molar ratio to biotinylated JES1-39D10 needed to produce the same degree of binding inhibition is 1 molar ratio. In addition, in test [2], the IC50 (pM), inhibition of IL-5-induced CD11b expression on HL-60 cells amounted to 166 pM; the IC50 CMX5/IC50 39D10, inhibition of IL-5-induced CD11b expression on HL-60 cells (fold against 39D10) was 1; the MOLAR RATIO CMX5/IL-5, inhibition of IL-5-induced CD11b expression on HL-60 cells (molar ratio antibody:IL-5) came to 0.83. In addition, the concentration for half-maximal inhibition (IC50) in test [3] fell in the range of 0.15 to 0.55 nM.

B1: humanized antibody CMX5-2 (antibody, V domains shown)
VH: QVKLVQAGGGVVQPGRSLRLSCIASGFTFSSNSVNWIRQAPGKGLEWVALIWSNGDTDYNSAIKSRFTISRDNSKSTLYMQMNSLRTEDTAVYFCAREYYGYFDYWGQGVLVTVSS
VL: DIQMTQSPSSLSVSVGDRVTITCLASEGISSYLAWYQQKPGLAPKLLIYGANSLQTGVPSRFSGSGSATDFTLTISSLQPEDIATYYCQQSYKFPNTFGQGTKVDVKR
Regarding B1, the “molar ratio to biotinylated JES1-39D10 needed to produce the same degree of binding inhibition” value (“molar ratio … of binding inhibition” below) in test [1] was around 1.4 molar ratio. In test [2], the “IC50 (pM), inhibition of IL-5-induced CD11b expression on HL-60 cells” value (“IC50 (pM), inhibition” for short) was found to be 467 pM; the “IC50 CMX5/IC50 39D10, inhibition of IL-5-induced CD11b expression on HL-60 cells” value worked out at 2.8 fold against 39D10; the “MOLAR RATIO CMX5/IL-5, inhibition of IL-5-induced CD11b expression on HL-60 cells” value is 2.3 molar ratio antibody:IL-5. Besides, the IC50 in test [3] was in the range of 0.35 to 0.7 nM.

B2: humanized antibody CMX5-4 (antibody, V domains shown)
VH: QVKLVQAGGGVVQPGRSLRLSCIASGLSLTSNGMHWVRQAPGKGLEWVAVIWSNGSRTYYGDSVKGRFTISRDNSKRTLYMQMNSLRTEDTAVYYCAREYYGYFDYWGQGVLVTVSS
VL: B1 VL with L24Q, A34N, S53T, L54R, Q55E, T56A, A68G
notes: VH HIL minimal, VL LAY minimal
Regarding B2, the binding result in test [4] is given as “no binding”.

B3: humanized antibody CMX5-3 (antibody, V domains shown)
VH: EVQLLESGGGLVQPGGSLRLSCAVSGLSLTSNSVNWIRQAPGKGLEWVALIWSNGDTDYNSAIKSRFTISRNDSKNTLYLQMNGLQAEVSAIYFCAREYYGYFDYWGQGTLVTVSS
VL: B1 VL
notes: VH LAY maximal, VL LAY maximal
Consider B3, for which the binding result in test [4] is on record as “binds”.

B4: humanized antibody CMX5-1 (antibody, V domains shown)
VH: B1 VH with A24V, F27L, T28S, F29L, S30T
VL: B1 VL with K45L
notes: VH HIL maximal, VL LAY maximal; also called CMX1; antibody from clone CJA25
B4: the “molar ratio … of binding inhibition” value in test [1] was around 3.3 molar ratio. Moreover, in test [2], the “IC50 (pM), inhibition” value amounted to 1470 pM; the “IC50 CMX5/IC50 39D10, inhibition of IL-5-induced CD11b expression on HL-60 cells” value came to 8.8 fold against 39D10; the “MOLAR RATIO CMX5/IL-5, inhibition of IL-5-induced CD11b expression on HL-60 cells” value was 7.3 molar ratio antibody:IL-5. Besides, in test [3], the IC50 lay within 1.5 to 3 nM.

B5: humanized antibody CMX5-5 (antibody, V domains shown)
VH: B1 VH with I37V, S76R, F94Y
VL: B1 VL with A68G, L73F
notes: Kabat CDRs only on HIL VH and LAY VL
As for B5, in test [1], the “molar ratio … of binding inhibition” value is around 1.4 molar ratio. Further, in test [2], the “IC50 (pM), inhibition” value is 800 pM; the “IC50 CMX5/IC50 39D10, inhibition of IL-5-induced CD11b expression on HL-60 cells” value stood at 4.8 fold against 39D10; the “MOLAR RATIO CMX5/IL-5, inhibition of IL-5-induced CD11b expression on HL-60 cells” value was 4 molar ratio antibody:IL-5. In addition, in test [3], the half-inhibitory concentration (IC50) was 0.5 to 1.1 nM.
